Usually Kd stands for the free concentration of one partner at which half of the binding sites on the other are occupied at equilibrium, for simple one-to-one binding. For orientation: IC50 means the concentration that inhibits the measured activity by half. High values mean weaker potency in that assay, low ones greater potency in that assay.

Some results are limits rather than exact numbers.

The target in one experiment is HLA-B*40:01. Nature of the experiment: IEDB peptide-MHC binding, purified MHC/direct/fluorescence; filed as Kd, often an IC50 or EC50 that approximates it; ≥ and ≤ were set here for values at or beyond the usual limits of such assays. As to conditions: source organism: Influenza A virus (A/WSN/1933(H1N1)).
The target in experiment [1] is HLA-B*07:02. The description is as above. As to conditions: source organism: Influenza A virus (A/WSN/1933(H1N1)).
For experiment [2], the target named is HLA-B*46:01. The experiment is described as above. As to conditions: source organism: Influenza A virus (A/WSN/1933(H1N1)).
The target of a further experiment is HLA-A*01:01. Described as above. As to conditions: source organism: Influenza A virus (A/WSN/1933(H1N1)).
Experiment [3] deals with HLA-A*24:02. The description is as above. As to conditions: source organism: Influenza A virus (A/WSN/1933(H1N1)).
The target of a further experiment is HLA-B*44:02. The experiment is described as above. As to conditions: source organism: Influenza A virus (A/WSN/1933(H1N1)).
Another experiment concerns the target HLA-B*27:05. Described as above. As to conditions: source organism: Influenza A virus (A/WSN/1933(H1N1)).
The next experiment has as its target HLA-B*58:01. Described as above. As to conditions: source organism: Influenza A virus (A/WSN/1933(H1N1)).
For experiment [4], the target named is HLA-A*03:01. Described as above. As to conditions: source organism: Influenza A virus (A/WSN/1933(H1N1)).
Experiment [5] concerns the target HLA-B*08:01. Described as above. The settings on record: source organism: Influenza A virus (A/WSN/1933(H1N1)).
For experiment [6], the target named is HLA-A*11:01. The description is as above. As to conditions: source organism: Influenza A virus (A/WSN/1933(H1N1)).
In experiment [7] the target is HLA-B*15:01. Described as above. As to conditions: source organism: Influenza A virus (A/WSN/1933(H1N1)).
Experiment [8] deals with HLA-A*24:02. Nature of the experiment: IEDB peptide-MHC binding, purified MHC/competitive/fluorescence; ≥ and ≤ were set here for values at or beyond the usual limits of such assays. As to conditions: source organism: Zaire ebolavirus.
For experiment [9], the target named is HLA-B*08:01. Described as above. The settings on record: source organism: Zaire ebolavirus.
For experiment [10], the target named is HLA-A*02:01. The description is as above. As to conditions: source organism: Zaire ebolavirus.
The target in a further experiment is HLA-A*02:12. Nature of the experiment: IEDB peptide-MHC binding, purified MHC/competitive/fluorescence; filed as Kd, often an IC50 or EC50 that approximates it; ≥ and ≤ were set here for values at or beyond the usual limits of such assays.
A further experiment concerns the target HLA-A*29:02. The experiment is described as above.
Another experiment concerns the target HLA-A*24:03. Described as above.
The target in experiment [11] is HLA-B*46:01. The description is as above.
Another experiment has as its target HLA-A*26:01. The experiment is described as above.
The target in another experiment is HLA-A*69:01. The experiment is described as above.
Another experiment addresses HLA-B*18:01. The experiment is described as above.
Another experiment addresses HLA-A*23:01. Described as above.
The target in another experiment is HLA-B*57:01. The description is as above.
The target of the next experiment is HLA-B*39:01. The experiment is described as above.
In a further experiment the target is HLA-A*02:11. The description is as above.
A further experiment concerns the target HLA-A*02:16. The description is as above.
Experiment [12] has as its target HLA-A*03:01. Described as above.
The target of the next experiment is HLA-B*51:01. The experiment is described as above.
Another experiment addresses HLA-A*02:19. Described as above.
For the next experiment, the target named is HLA-A*02:03. Described as above.
The target in the next experiment is HLA-B*15:17. Described as above.
Experiment [13] has as its target HLA-A*02:01. The experiment is described as above.
In another experiment the target is HLA-B*27:03. The experiment is described as above.
Experiment [14] has as its target HLA-B*15:01. Described as above.
Experiment [15] concerns the target HLA-B*07:02. Nature of the experiment: IEDB peptide-MHC binding, purified MHC/competitive/fluorescence; ≥ and ≤ were set here for values at or beyond the usual limits of such assays. As to conditions: source organism: Zaire ebolavirus.
Experiment [16] deals with HLA-A*03:01. The experiment is described as above. The settings on record: source organism: Zaire ebolavirus.
Experiment [17] has as its target HLA-A*11:01. Described as above. As to conditions: source organism: Zaire ebolavirus.
Experiment [18] has as its target HLA-B*15:01. The experiment is described as above. The settings on record: source organism: Zaire ebolavirus.
Experiment [19] deals with HLA-A*02:01. Nature of the experiment: IEDB peptide-MHC binding, purified MHC/direct/fluorescence; filed as Kd, often an IC50 or EC50 that approximates it; ≥ and ≤ were set here for values at or beyond the usual limits of such assays. As to conditions: source organism: Zaire ebolavirus.
A further experiment has as its target HLA-A*68:02. The experiment in a line: IEDB peptide-MHC binding, purified MHC/competitive/fluorescence; filed as Kd, often an IC50 or EC50 that approximates it; ≥ and ≤ were set here for values at or beyond the usual limits of such assays. The settings on record: source organism: Burkholderia orbicola.
Setting [20] is: source organism: Brucella melitensis bv. 1 str. 16M.
The mark [21] stands for this setting: source organism: Zaire ebolavirus.
Setting [22] is: source organism: Burkholderia orbicola.

In the case of NLEPGTFDL, the Kd with HLA-B*40:01, with HLA-B*07:02 [1], with HLA-B*46:01 [2], with HLA-A*01:01, with HLA-A*24:02 [3] and in the experiment with HLA-B*44:02 was at least 20 µM in each case. In addition, the Kd with HLA-B*27:05, with HLA-B*58:01, in the experiment with HLA-A*03:01 [4], with HLA-B*08:01 [5], with HLA-A*11:01 [6] and with HLA-B*15:01 [7] was at least 20 µM throughout.

In the case of NHKNKFMAI, the IC50 is 19.4 µM with HLA-A*24:02 [8] and 15.9 µM with HLA-B*08:01 [9].

Consider TNFLIKFLL, for which the IC50 with HLA-A*24:02 [8] is 3.2 µM; with HLA-B*08:01 [9], at least 523 µM; with HLA-A*02:01 [10], at least 181 µM.

Consider AVGVVCTGL, for which the Kd with HLA-A*02:12 (setting [20]), with HLA-A*29:02 (setting [20]), with HLA-A*24:03 (setting [20]), with HLA-B*46:01 [11] (setting [20]), with HLA-A*26:01 (setting [20]) and with HLA-A*69:01 (setting [20]) was at least 20 µM each time. Besides, the Kd in the experiment with HLA-B*18:01 (setting [20]) is at least 20 µM; in the experiment with HLA-A*23:01 (setting [20]), at least 20 µM; with HLA-B*57:01 (setting [20]), at least 20 µM; with HLA-B*39:01 (setting [20]), at least 20 µM; with HLA-A*02:11 (setting [20]) it was at least 20 µM; with HLA-A*02:16 (setting [20]), 0.273 µM. For the same sequence, the Kd with HLA-A*03:01 [12] (setting [20]), with HLA-B*51:01 (setting [20]), with HLA-A*02:19 (setting [20]), with HLA-A*02:03 (setting [20]), with HLA-B*15:17 (setting [20]) and with HLA-A*02:01 [13] (setting [20]) was at least 20 µM throughout. In addition, the Kd in the experiment with HLA-B*27:03 (setting [20]) and in the experiment with HLA-B*15:01 [14] (setting [20]) was at least 20 µM in each case.

Turning to RLMRTNFLI, the Kd with HLA-B*46:01 [11] (setting [21]) is at least 20 µM; in the experiment with HLA-A*26:01 (setting [21]), at least 20 µM; in the experiment with HLA-B*18:01 (setting [21]) it was at least 20 µM; with HLA-A*02:01 [19], 0.0175 µM. In addition, the IC50 came out at 15.9 µM in the experiment with HLA-B*07:02 [15]; 0.0213 µM with HLA-A*24:02 [8]; 3.42 µM in the experiment with HLA-A*03:01 [16]; 58.7 µM with HLA-B*08:01 [9]; 0.514 µM in the experiment with HLA-A*02:01 [10]; 3.95 µM with HLA-A*11:01 [17]. The sequence further showed an IC50 in the experiment with HLA-B*15:01 [18] of 11.4 µM.

Turning to RIEQLYPFA, the Kd with HLA-A*02:12 (setting [22]), in the experiment with HLA-A*29:02 (setting [22]), in the experiment with HLA-A*24:03 (setting [22]), with HLA-A*68:02, with HLA-B*46:01 [11] (setting [22]) and in the experiment with HLA-A*26:01 (setting [22]) was at least 20 µM each time. The dissociation constant (Kd) with HLA-A*69:01 (setting [22]), with HLA-B*18:01 (setting [22]), with HLA-A*23:01 (setting [22]), in the experiment with HLA-B*57:01 (setting [22]), with HLA-B*39:01 (setting [22]) and with HLA-A*02:11 (setting [22]) was at least 20 µM in each case. The Kd was 0.292 µM with HLA-A*02:16 (setting [22]); at least 20 µM in the experiment with HLA-A*03:01 [12] (setting [22]); at least 20 µM with HLA-B*51:01 (setting [22]); at least 20 µM in the experiment with HLA-A*02:19 (setting [22]); at least 20 µM with HLA-A*02:03 (setting [22]); at least 20 µM with HLA-B*15:17 (setting [22]). Besides, the Kd with HLA-A*02:01 [13] (setting [22]), with HLA-B*27:03 (setting [22]) and with HLA-B*15:01 [14] (setting [22]) was at least 20 µM throughout.

These data come from the Immune Epitope Database (IEDB).
